Laboratory results from patent US7374891B2, “Methods to identify compounds that modulate rage” (TransTech Pharma, Inc., priority 2000, dated 2008).
pKd: −log10 of the molar value. Like-named read-outs stand apart in the source and are kept apart here.

Molecular target: T1, S-100b (Homo sapiens, UniProt P04271)
T1 sequence (P04271 2-92 limits assumed): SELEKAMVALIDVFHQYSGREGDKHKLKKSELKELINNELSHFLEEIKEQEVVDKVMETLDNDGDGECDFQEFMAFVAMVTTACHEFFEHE
Experiment: Saturation binding of sRAGE to immobilized S-100b (ELISA, Scatchard analysis)
Description: Generally, the protocol for detection of RAGE modulators is as follows. RAGE ligand (e.g. S-100b, β-amyloid, CML) is diluted to 5 μg/ml in buffer A (fixing buffer) (100 mM Na2CO3/NaHCO3, pH 9.8) and 100 μl added to microtiter plate wells and allowed to incubate overnight at 4° C. to allow the ligand to become fixed to the surface of the wells. Wells are then washed 3 times with 400 μl/well buffer C (wash buffer) (20 mM Imidazole, 150 mM NaCl, pH 7.2), with a 5 second soak in buffer C between each wash. Buffer B (blocking buffer) (50 mM Imidazole pH 7.2, 5% BSA, 5 mM CaCl2, 5 mM MgCl2) is then added to the wells and allowed to incubate for 2 hours at 37° C. to block nonspecific protein binding sites. The blocking buffer is then aspirated from the wells, and the plate washed 3 times (400 μl/well) with buffer C, with a 5 second soak in buffer C between each wash. The compound of interest, 25 μl dissolved in 2% DMSO FAC (Final Assay Concentration ) and sRAGE (75 μl) (2.2×10^−4 mg/ml FAC) are then added to each well, and incubated 1 hour at 37° C. Meanwhile, polyclonal antibody or monoclonal antibody for sRAGE (e.g. 3.0×10^−3 mg/ml and 1.9×10^−4 mg/ml FAC, respectively), biotinylated goat F (ab′)2 anti-mouse IgG (e.g. 8.0×10^−4mg/ml FAC) (Biosource International, Camarillo, Calif. (TAGO)), and alkaline phosphatase labeled streptavidin (3.0×10^−3 mg/ml FAC) (ZYMED, San Francisco, Calif.) are added to 5 ml of buffer D (complex buffer) (50 mM Imidazole, pH 7.2; 0.2% BSA, 5 mM CaCl2, 5 mM MgCl2) in a 15 ml conical tube and allowed to incubate 30 minutes at room temperature.
The solution containing sRAGE and the compound of interest is then aspirated from each well, and after 3 washes with wash buffer, with a 5 second soak between each wash, the anti-sRAGE:IgG:streptavidin-alkaline phosphatase complex is added to each well (100 μl complex per well). After 1 hour at room temperature, the solution in each well is aspirated, and the wells washed 3 times, with 5 second soaks between each wash.
The alkaline phosphatase substrate, para-nitrophenyl phosphate (pNPP) (1 mg/ml in 1 M diethanolamine, pH 9.8), is added and the color allowed to develop for 1 hr in the dark. After the addition of 10 μl stop solution per well (0.5 N NaOH; 50% methanol), the OD405 is measured.
In the experiment shown in FIG. 10, wells were coated by incubation with 500 ng/well S-100b overnight, and after washing, sRAGE diluted in buffer D added to the final concentrations shown. […]
The utility of the assay for detecting compounds which antagonize both low and high affinity RAGE binding domains is shown in FIGS. 8-11. […] The amount of sRAGE bound to the immobilized ligand was detected using anti-sRAGE polyclonal or monoclonal antibody (3.0×10^−3 mg/ml and 1.9×10^−4 mg/ml FAC, respectively) and the development system as described in Example 1. Plots were linearized by means of Scatchard analysis and values for Kd and Bmax determined. Statistical analysis of experimental precision was determined by utilizing GraghPad Prisam version 3 software (GraphPad Software, Inc. San Diego, Calif.).
Both low and high affinity binding of sRAGE to S-100b are detected using the assay method of the invention. […] After washing, sRAGE comprising a final concentration ranging from about 0.3 to 10 nM was added to each well, and after 1 hour at 37° C., bound sRAGE was measured by the addition of polyclonal antibody complex. […]

sRAGE: soluble, extracellular portion of RAGE, as defined by the amino acid sequence SEQ ID NO: 2
pKd (S-100b 50 ng/well, sRAGE about 0.3 to 10 nM, FIG. 8, read-out: Kd, high affinity binding component): ~8.22 | pKd (S-100b 100 ng/well, sRAGE about 0.3 to 10 nM, FIG. 9, read-out: Kd, high affinity binding component): ~8.70 | pKd (S-100b 500 ng/well, four separate determinations, FIG. 10, read-out: Kd value): 7.22 | pKd (S-100b 500 and 100 ng/well, sRAGE 24 to 480 nM and 5 to 80 nM, FIGS. 10 and 11, read-out: Kd, low affinity binding site): ~7.22 | pKd (sRAGE 0.3 to 10 nM, FIGS. 8 and 9, read-out: Kd, high affinity binding site): 8.22 to 8.70
